From publication PMC9352680, “A comprehensive thermodynamic model for RNA binding by the Saccharomyces cerevisiae Pumilio protein PUF4”

T1: PUF4 RNA-binding domain (Saccharomyces cerevisiae, UniProt P25339 537-888)
T1 sequence: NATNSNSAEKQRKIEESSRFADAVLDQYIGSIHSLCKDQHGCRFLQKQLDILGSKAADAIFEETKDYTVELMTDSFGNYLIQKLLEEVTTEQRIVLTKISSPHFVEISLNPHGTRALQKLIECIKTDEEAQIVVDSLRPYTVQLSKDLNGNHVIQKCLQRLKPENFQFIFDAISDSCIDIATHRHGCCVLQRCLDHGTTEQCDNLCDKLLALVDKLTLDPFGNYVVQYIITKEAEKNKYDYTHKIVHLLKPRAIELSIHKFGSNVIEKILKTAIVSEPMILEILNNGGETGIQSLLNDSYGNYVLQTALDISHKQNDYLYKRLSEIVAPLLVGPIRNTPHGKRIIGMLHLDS


Target: T1, PUF4 RNA-binding domain
Test: Mg; RNA-MaP; 20 mM Na-HEPES pH 7.4, 30 mM KOAc, 0.75 mM MgCl2, 0.1% Tween-20, 5% glycerol, 0.1 mg/mL BSA, 2 mM DTT; 25 C; 0.0125-409.6 nM protein
Details: tags: N-His6-TEV cleaved; C-SNAP kept, Cy3B-labelled; label: tethered on chip by stalled RNA polymerase

Row | Binder | Kd
1 | UCUCUUCGUAUUAUUCUCUCUU (ssRNA) [Ib_S1_P5E.1_K5.1_C5.1_H5.1_[T1C]_A5.1_F5.1_[A10C]_T5.1] | > 2300 nM
2 | Id_ii_S2_P4E.2_K4.1_C4.2_[C-2A]_[T-1A]_H4.1_A4.1_F4.1_T4.2_[G10T]_[T11C] (ssRNA) RNA: UUUGAUUAAUAUGAUAUCGUUCUUUCUAAUGUAUAUUAUCUUCUUUCUCGAUAUCAUAUUAAUCUUU | 1.1 nM
3 | Id_ii_S2_P4E.2_K4.1_C4.2_[C-2A]_[T-1A]_H4.1_A4.1_F4.1_T4.2_[G10A]_[T11G] (ssRNA) RNA: UUUGAUUAAUAUGAUAUCGUUCUUUCUAAUGUAUAUUAAGUUCUUUCUCGAUAUCAUAUUAAUCUUU | 8.86 nM
4 | Id_ii_S2_P4E.2_K4.1_C4.2_[C-2A]_[T-1A]_H4.1_A4.1_F4.1_T4.2_[G10A]_[T11C] (ssRNA) RNA: UUUGAUUAAUAUGAUAUCGUUCUUUCUAAUGUAUAUUAACUUCUUUCUCGAUAUCAUAUUAAUCUUU | 1.96 nM
5 | Id_ii_S2_P4E.2_K4.1_C4.2_[C-2A]_[T-1A]_H4.1_A4.1_F4.1_T4.2_[G10A]_[T11A] (ssRNA) RNA: UUUGAUUAAUAUGAUAUCGUUCUUUCUAAUGUAUAUUAAAUUCUUUCUCGAUAUCAUAUUAAUCUUU | 3.89 nM
6 | Id_ii_S2_P4E.2_K4.1_C4.2_[C-2A]_[T-1A]_H4.1_A4.1_F4.1_T4.2_[G10A] (ssRNA) RNA: UUUGAUUAAUAUGAUAUCGUUCUUUCUAAUGUAUAUUAAUUUCUUUCUCGAUAUCAUAUUAAUCUUU | 1.93 nM
7 | Id_ii_S2_P4E.2_K4.1_C4.2_[C-2A]_H4.1_A4.1_F4.1_T4.2_[G10C] (ssRNA) RNA: UUUGAUUAAUAUGAUAUCGUUCUUUCUAUUGUAUAUUACUUUCUUUCUCGAUAUCAUAUUAAUCUUU | 1.11 nM
8 | Id_ii_S2_P4E.2_K4.1_C4.2_[C-2A]_H4.1_A4.1_F4.1_T4.2_[G10T]_[T11G] (ssRNA) RNA: UUUGAUUAAUAUGAUAUCGUUCUUUCUAUUGUAUAUUAUGUUCUUUCUCGAUAUCAUAUUAAUCUUU | 0.705 nM
9 | Id_ii_S2_P4E.2_K4.1_C4.2_[C-2A]_H4.1_A4.1_F4.1_T4.2_[G10T]_[T11C] (ssRNA) RNA: UUUGAUUAAUAUGAUAUCGUUCUUUCUAUUGUAUAUUAUCUUCUUUCUCGAUAUCAUAUUAAUCUUU | 0.401 nM
10 | Id_ii_S2_P4E.2_K4.1_C4.2_[C-2A]_H4.1_A4.1_F4.1_T4.2_[G10A]_[T11A] (ssRNA) RNA: UUUGAUUAAUAUGAUAUCGUUCUUUCUAUUGUAUAUUAAAUUCUUUCUCGAUAUCAUAUUAAUCUUU | 0.939 nM
11 | Id_ii_S2_P4E.2_K4.1_C4.2_[C-2A]_H4.1_A4.1_F4.1_T4.2_[G10A] (ssRNA) RNA: UUUGAUUAAUAUGAUAUCGUUCUUUCUAUUGUAUAUUAAUUUCUUUCUCGAUAUCAUAUUAAUCUUU | 0.782 nM
12 | UCUCUUAGUAUUAUUUUCUCUU (ssRNA) [Ib_S1_P5E.1_K5.1_C5.1_H5.1_[T1A]_A5.1_F5.1_[A10T]_T5.1] | > 2300 nM
13 | Id_ii_S2_P4E.2_K4.1_C4.2_[T-1G]_H4.1_A4.1_F4.1_T4.2_[G10T]_[T11C] (ssRNA) RNA: UUUGAUUAAUAUGAUAUCGUUCUUUCUCGUGUAUAUUAUCUUCUUUCUCGAUAUCAUAUUAAUCUUU | 0.286 nM
14 | Id_ii_S2_P4E.2_K4.1_C4.2_[T-1G]_H4.1_A4.1_F4.1_T4.2_[G10T] (ssRNA) RNA: UUUGAUUAAUAUGAUAUCGUUCUUUCUCGUGUAUAUUAUUUUCUUUCUCGAUAUCAUAUUAAUCUUU | 0.195 nM
15 | Id_ii_S2_P4E.2_K4.1_C4.2_[T-1G]_H4.1_A4.1_F4.1_T4.2_[G10A]_[T11G] (ssRNA) RNA: UUUGAUUAAUAUGAUAUCGUUCUUUCUCGUGUAUAUUAAGUUCUUUCUCGAUAUCAUAUUAAUCUUU | 1.7 nM
16 | Id_ii_S2_P4E.2_K4.1_C4.2_[T-1G]_H4.1_A4.1_F4.1_T4.2_[G10A]_[T11A] (ssRNA) RNA: UUUGAUUAAUAUGAUAUCGUUCUUUCUCGUGUAUAUUAAAUUCUUUCUCGAUAUCAUAUUAAUCUUU | 0.489 nM
17 | Id_ii_S2_P4E.2_K4.1_C4.2_[T-1G]_H4.1_A4.1_F4.1_T4.2_[G10A] (ssRNA) RNA: UUUGAUUAAUAUGAUAUCGUUCUUUCUCGUGUAUAUUAAUUUCUUUCUCGAUAUCAUAUUAAUCUUU | 0.316 nM
18 | Id_ii_S2_P4E.2_K4.1_C4.2_[T-1G]_H4.1_A4.1_F4.1_T4.2 (ssRNA) RNA: UUUGAUUAAUAUGAUAUCGUUCUUUCUCGUGUAUAUUAGUUUCUUUCUCGAUAUCAUAUUAAUCUUU | 0.296 nM

Row | Binder | Kd
19 | Id_ii_S2_P4E.2_K4.1_C4.2_[T-1C]_H4.1_A4.1_F4.1_T4.2_[G10C] (ssRNA) RNA: UUUGAUUAAUAUGAUAUCGUUCUUUCUCCUGUAUAUUACUUUCUUUCUCGAUAUCAUAUUAAUCUUU | 0.482 nM
20 | Id_ii_S2_P4E.2_K4.1_C4.2_[T-1C]_H4.1_A4.1_F4.1_T4.2_[G10T]_[T11A] (ssRNA) RNA: UUUGAUUAAUAUGAUAUCGUUCUUUCUCCUGUAUAUUAUAUUCUUUCUCGAUAUCAUAUUAAUCUUU | 0.342 nM
21 | Id_ii_S2_P4E.2_K4.1_C4.2_[T-1C]_H4.1_A4.1_F4.1_T4.2_[G10T] (ssRNA) RNA: UUUGAUUAAUAUGAUAUCGUUCUUUCUCCUGUAUAUUAUUUUCUUUCUCGAUAUCAUAUUAAUCUUU | 0.15 nM
22 | Id_ii_S2_P4E.2_K4.1_C4.2_[T-1C]_H4.1_A4.1_F4.1_T4.2_[G10A]_[T11G] (ssRNA) RNA: UUUGAUUAAUAUGAUAUCGUUCUUUCUCCUGUAUAUUAAGUUCUUUCUCGAUAUCAUAUUAAUCUUU | 1.63 nM
23 | UCUCUUUCUAUUAUUGUCUCUU (ssRNA) [Ib_S1_P5E.1_K5.1_C5.1_H5.1_[G2C]_A5.1_F5.1_[A10G]_T5.1] | > 2300 nM
24 | Id_ii_S2_P4E.2_K4.1_C4.2_[T-1C]_H4.1_A4.1_F4.1_T4.2_[G10A]_[T11A] (ssRNA) RNA: UUUGAUUAAUAUGAUAUCGUUCUUUCUCCUGUAUAUUAAAUUCUUUCUCGAUAUCAUAUUAAUCUUU | 0.324 nM
25 | Id_ii_S2_P4E.2_K4.1_C4.2_[T-1C]_H4.1_A4.1_F4.1_T4.2 (ssRNA) RNA: UUUGAUUAAUAUGAUAUCGUUCUUUCUCCUGUAUAUUAGUUUCUUUCUCGAUAUCAUAUUAAUCUUU | 0.166 nM
26 | Id_ii_S2_P4E.2_K4.1_C4.2_[T-1A]_H4.1_A4.1_F4.1_T4.2_[G10C]_[T11C] (ssRNA) RNA: UUUGAUUAAUAUGAUAUCGUUCUUUCUCAUGUAUAUUACCUUCUUUCUCGAUAUCAUAUUAAUCUUU | 0.746 nM
27 | Id_ii_S2_P4E.2_K4.1_C4.2_[T-1A]_H4.1_A4.1_F4.1_T4.2_[G10C] (ssRNA) RNA: UUUGAUUAAUAUGAUAUCGUUCUUUCUCAUGUAUAUUACUUUCUUUCUCGAUAUCAUAUUAAUCUUU | 0.716 nM
28 | Id_ii_S2_P4E.2_K4.1_C4.2_[T-1A]_H4.1_A4.1_F4.1_T4.2_[G10A]_[T11G] (ssRNA) RNA: UUUGAUUAAUAUGAUAUCGUUCUUUCUCAUGUAUAUUAAGUUCUUUCUCGAUAUCAUAUUAAUCUUU | 2.6 nM
29 | Id_ii_S2_P4E.2_K4.1_C4.2_[T-1A]_H4.1_A4.1_F4.1_T4.2_[G10A]_[T11A] (ssRNA) RNA: UUUGAUUAAUAUGAUAUCGUUCUUUCUCAUGUAUAUUAAAUUCUUUCUCGAUAUCAUAUUAAUCUUU | 0.937 nM
30 | Id_ii_S2_P4E.2_K4.1_C4.2_[T-1A]_H4.1_A4.1_F4.1_T4.2_[G10A] (ssRNA) RNA: UUUGAUUAAUAUGAUAUCGUUCUUUCUCAUGUAUAUUAAUUUCUUUCUCGAUAUCAUAUUAAUCUUU | 0.506 nM
31 | Id_ii_S2_P4E.2_K4.1_C4.2_[T-1A]_H4.1_A4.1_F4.1_T4.2 (ssRNA) RNA: UUUGAUUAAUAUGAUAUCGUUCUUUCUCAUGUAUAUUAGUUUCUUUCUCGAUAUCAUAUUAAUCUUU | 0.425 nM
32 | Id_ii_S2_P4E.2_K4.1_C4.2_H4.1_A4.1_F4.1_T4.2_[G10C]_[T11C] (ssRNA) RNA: UUUGAUUAAUAUGAUAUCGUUCUUUCUCUUGUAUAUUACCUUCUUUCUCGAUAUCAUAUUAAUCUUU | 0.362 nM
33 | Id_ii_S2_P4E.2_K4.1_C4.2_H4.1_A4.1_F4.1_T4.2_[G10C] (ssRNA) RNA: UUUGAUUAAUAUGAUAUCGUUCUUUCUCUUGUAUAUUACUUUCUUUCUCGAUAUCAUAUUAAUCUUU | 0.572 nM
34 | UCUCUUUAUAUUAUUGUCUCUU (ssRNA) [Ib_S1_P5E.1_K5.1_C5.1_H5.1_[G2A]_A5.1_F5.1_[A10G]_T5.1] | 242 nM
35 | Ie_S2_P3E.2_K3.1_C3.2_H3.1_A3.1_F3.1_[+7T]_T3.2 (ssRNA) RNA: UUUGAUUAAUAUGAUAUCGUUCUUUCUCUUGUAUAUUAUAUUCUUUCUCGAUAUCAUAUUAAUCUUU | 0.308 nM
